In the supplement of paper PMC10567573:

B1: TMEM106C (parent)
chain: SEQLVNFTGKAEMGGPFSYVYFFC

Variants of: B1
Experiment: protein stability index of a GFP-peptide fusion (GPS, HEK-293T) (PSI 1-6); higher = more stable
Conditions: c terminus: a fixed tail appended
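Further: lentivirally expressed fusions sorted by FACS into six bins by GFP to DsRed ratio, PSI derived from sequencing read proportions per bin multiplied by bin number.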

Variant	protein stability index
SEQLKNFTGKAEMGGPFSYVYFFC [V5K]	3.06
SEQLTNFTGKAEMGGPFSYVYFFC [V5T]	1.81
SEQLWNFTGKAEMGGPFSYVYFFC [V5W]	4.3
SEQLQNFTGKAEMGGPFSYVYFFC [V5Q]	2.89
SEQLGNFTGKAEMGGPFSYVYFFC [V5G]	1.26
SEQLCNFTGKAEMGGPFSYVYFFC [V5C]	2.67
SEQLANFTGKAEMGGPFSYVYFFC [V5A]	2.95
SEQLMNFTGKAEMGGPFSYVYFFC [V5M]	2.83
SEQLINFTGKAEMGGPFSYVYFFC [V5I]	3.42
SEQLSNFTGKAEMGGPFSYVYFFC [V5S]	2.45
SEQLYNFTGKAEMGGPFSYVYFFC [V5Y]	3.6
SEQLPNFTGKAEMGGPFSYVYFFC [V5P]	4.22
SEQLRNFTGKAEMGGPFSYVYFFC [V5R]	2.8
SELLVNFTGKAEMGGPFSYVYFFC [Q3L]	3.56
SEDLVNFTGKAEMGGPFSYVYFFC [Q3D]	3.39
SEILVNFTGKAEMGGPFSYVYFFC [Q3I]	2.94
SEWLVNFTGKAEMGGPFSYVYFFC [Q3W]	3.02
SEALVNFTGKAEMGGPFSYVYFFC [Q3A]	1.85
SEKLVNFTGKAEMGGPFSYVYFFC [Q3K]	2.79
SENLVNFTGKAEMGGPFSYVYFFC [Q3N]	3.22
SEELVNFTGKAEMGGPFSYVYFFC [Q3E]	2.57
SEGLVNFTGKAEMGGPFSYVYFFC [Q3G]	3.44
SEHLVNFTGKAEMGGPFSYVYFFC [Q3H]	3.21
SEVLVNFTGKAEMGGPFSYVYFFC [Q3V]	3.16

Variant	protein stability index
SEFLVNFTGKAEMGGPFSYVYFFC [Q3F]	2.76
SETLVNFTGKAEMGGPFSYVYFFC [Q3T]	2.79
SEYLVNFTGKAEMGGPFSYVYFFC [Q3Y]	2.99
SECLVNFTGKAEMGGPFSYVYFFC [Q3C]	2.98
SESLVNFTGKAEMGGPFSYVYFFC [Q3S]	2.73
SERLVNFTGKAEMGGPFSYVYFFC [Q3R]	2.4
SEMLVNFTGKAEMGGPFSYVYFFC [Q3M]	2.52
SEQLVNITGKAEMGGPFSYVYFFC [F7I]	2.32
SEQLVNMTGKAEMGGPFSYVYFFC [F7M]	1.98
SEQLVNLTGKAEMGGPFSYVYFFC [F7L]	3.36
SEQLVNKTGKAEMGGPFSYVYFFC [F7K]	2.69
SEQLVNGTGKAEMGGPFSYVYFFC [F7G]	1.68
SEQLVNNTGKAEMGGPFSYVYFFC [F7N]	2.37
SEQLVNDTGKAEMGGPFSYVYFFC [F7D]	2.32
SEQLVNCTGKAEMGGPFSYVYFFC [F7C]	3.4
SEQLVNETGKAEMGGPFSYVYFFC [F7E]	4.73
SEQLVNHTGKAEMGGPFSYVYFFC [F7H]	2.79
EEQLVNFTGKAEMGGPFSYVYFFC [S1E]	2.98
HEQLVNFTGKAEMGGPFSYVYFFC [S1H]	3.23
LEQLVNFTGKAEMGGPFSYVYFFC [S1L]	3.63
DEQLVNFTGKAEMGGPFSYVYFFC [S1D]	1.62
NEQLVNFTGKAEMGGPFSYVYFFC [S1N]	2.85
CEQLVNFTGKAEMGGPFSYVYFFC [S1C]	2.6
MEQLVNFTGKAEMGGPFSYVYFFC [S1M]	3.28

Variant	protein stability index
AEQLVNFTGKAEMGGPFSYVYFFC [S1A]	2.51
VEQLVNFTGKAEMGGPFSYVYFFC [S1V]	3.6
REQLVNFTGKAEMGGPFSYVYFFC [S1R]	3.55
TEQLVNFTGKAEMGGPFSYVYFFC [S1T]	3.09
KEQLVNFTGKAEMGGPFSYVYFFC [S1K]	2.67
QEQLVNFTGKAEMGGPFSYVYFFC [S1Q]	2.63
YEQLVNFTGKAEMGGPFSYVYFFC [S1Y]	1.72
WEQLVNFTGKAEMGGPFSYVYFFC [S1W]	2.49
FEQLVNFTGKAEMGGPFSYVYFFC [S1F]	2.65
IEQLVNFTGKAEMGGPFSYVYFFC [S1I]	3.37
GEQLVNFTGKAEMGGPFSYVYFFC [S1G]	3.79
PEQLVNFTGKAEMGGPFSYVYFFC [S1P]	2.9
SEQDVNFTGKAEMGGPFSYVYFFC [L4D]	2.39
SEQHVNFTGKAEMGGPFSYVYFFC [L4H]	4.32
SEQCVNFTGKAEMGGPFSYVYFFC [L4C]	1.94
SEQPVNFTGKAEMGGPFSYVYFFC [L4P]	2.07
SEQIVNFTGKAEMGGPFSYVYFFC [L4I]	2.74
SEQSVNFTGKAEMGGPFSYVYFFC [L4S]	2.11
SEQAVNFTGKAEMGGPFSYVYFFC [L4A]	2.54
SEQYVNFTGKAEMGGPFSYVYFFC [L4Y]	3.31
SEQTVNFTGKAEMGGPFSYVYFFC [L4T]	3.41
SEQQVNFTGKAEMGGPFSYVYFFC [L4Q]	1.93
SEQWVNFTGKAEMGGPFSYVYFFC [L4W]	2.2
SEQKVNFTGKAEMGGPFSYVYFFC [L4K]	3.49

Variant	protein stability index
SEQNVNFTGKAEMGGPFSYVYFFC [L4N]	3.12
SEQEVNFTGKAEMGGPFSYVYFFC [L4E]	2.62
SEQFVNFTGKAEMGGPFSYVYFFC [L4F]	2.75
SEQLVFFTGKAEMGGPFSYVYFFC [N6F]	2.56
SEQLVAFTGKAEMGGPFSYVYFFC [N6A]	2.28
SEQLVHFTGKAEMGGPFSYVYFFC [N6H]	1.97
SEQLVCFTGKAEMGGPFSYVYFFC [N6C]	3.24
SEQLVGFTGKAEMGGPFSYVYFFC [N6G]	3.12
SEQLVQFTGKAEMGGPFSYVYFFC [N6Q]	2.39
SEQLVPFTGKAEMGGPFSYVYFFC [N6P]	1.58
SEQLVIFTGKAEMGGPFSYVYFFC [N6I]	2.71
SEQLVDFTGKAEMGGPFSYVYFFC [N6D]	2.88
SEQLVMFTGKAEMGGPFSYVYFFC [N6M]	3.44
SEQLVTFTGKAEMGGPFSYVYFFC [N6T]	2.97
SEQLVSFTGKAEMGGPFSYVYFFC [N6S]	2.52
SEQLVRFTGKAEMGGPFSYVYFFC [N6R]	2.31
SEQLVWFTGKAEMGGPFSYVYFFC [N6W]	2.96
SEQLVYFTGKAEMGGPFSYVYFFC [N6Y]	2.19
SEQLVVFTGKAEMGGPFSYVYFFC [N6V]	2.18
SEQLVEFTGKAEMGGPFSYVYFFC [N6E]	3.28
SEQLVLFTGKAEMGGPFSYVYFFC [N6L]	1.38
SEQLVKFTGKAEMGGPFSYVYFFC [N6K]	2.82
